Laboratory results: the supplement of paper PMC9170038

tested on: MS2 coat protein; test: apparent KD of MS2 coat protein, switch OFF state (with FMN for OFF switches, without FMN for ON switches); designed switch direction (-1 OFF switch, 1 ON switch): 1; higher = weaker reporter binding; details: FMN input: 0 or 200 uM; Eterna round: R93 (includes R88 designs)
How it was run: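 SNAP-549-labelled MS2 coat protein was titrated onto designed RNA switches that had been transcribed on-chip from Illumina sequencing clusters. Amounts doubled from 0.7 or 1.5 nM to 3 µM in 100 mM Tris-HCl pH 7.5, 80 mM KCl, 4 mM MgCl2, with constant ligand or without. Apparent KD is the median per design of normalised cluster binding-curve fits.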

| Sequence | apparent KD of MS2 coat protein [µM] |
| --- | --- |
| AGGAAACAUGAGGAUCACCCAUGUAAAAAUAUGGGAGGAUAUACAAAGACGAAAGUGAGAGUAGAAGGCCUAAAAG [Garnet 18] | 0.124 |
| AUGGUGUAGGUACAGGAUAUGUUGCUCGUAACAUGAGGAUCACCCAUGUACCUAUGAGAUUAAAUGCAGAAGGGUGCACACCACG [Usbivece] | 0.0355 |
| GAAAAACAUGAGGAUCACCCAUGUAGAAAUAUGGGAGGAUAUACAAUGACGAAAGUCAAUGUAGAAGGCCUGAUAG [JL S1 M-MoE mod 4] | 0.0742 |
| GAGGACAUAGUAUAGGAUAUAUGAAUAAUUACAUGAGGAUCACCCAUGUGCAUUUAUAUGCGAACAUAGAAGGGUGGUAGUUAUC [SameState2 Malc#32] | 0.037 |
| GGGAGACAUGAGGAUCACCCAUGUGAGAAGAGGCGAGGAUAUCGAAAAAAAAAAAAAAAACGAGAAGGCGCGAGAU [salish99-SS1-004] | 0.3 |
| GAAAAACAUGAGGAUCACCCAUGUUAAUAUAUGGGAGGAUAUACAAAGACGAAAGUCAAAGUAGAAGGCCUAAAAG | 0.0433 |
| AACAAUCUAUCUGAGGAUAUCAUUAAAAAGACAUGAGGAUCACCCAUGUAGCAGGAAACUGCAUAUGAGAAGGCAGAUAGAUUGA [SS2: 1123] | 0.0139 |
| AAUACACAUAGUCAGGAUAUCAAAACUAAGACAUGAGGAUCACCCAUGUAAUAAGUAAAAGUAAAUGAGAAGGGACAGGGUGACC [JR_SS002_Sub404] | 0.0639 |
| GAGGACAUAGUUCAGGAUAUAUGAAUAGUCACAUGAGGAUCACCCAUGUCCAUUUAUAUGGGCACAUAGAAGGGAGGUAGUUAUC [SameState2 Malc#26] | 0.417 |
| GUUGAACAUGAGGAUCACCCAUGUCUCAACAGUCAAGGAUAUGGGUCAUGCAGAUGAAUACCAGAAGGUGAAUAAA [Zaorxe] | 0.0336 |
| AACUACAUUAUGAAGGAUAUCCGCGUCUAGACAUGAGGAUCACCCAUGUAUACUUGGAUCAUGCAGGAGAAGGUCAAGGGUGAUU [JR_SS002_Sub1209] | 0.122 |
| AAAAAACAUGAGGAUCACCCAUGUCCUCGGACAUGAGGAUAUGUACAGACUUCGGUCUGUACAGAAGGCAUGUAAA [SS1 - 1018] | 0.684 |
| AGAAAUAAAAGAGAGGAUAUCCAAAAGGGAACAUGAGGAUCACCCAUGUAAAUGAAAAUAAAAUGGGAGAAGGCUCAAAAUAAAG [80% More Helter Skelter 2] | 0.085 |
| AAAAAUCCAGCGCAGGAUAUCGCAGGGUGCACAUGAGGAUCACCCAUGUGUACCCAAACACCCUGCGAGAAGGGCGUUGGAAAAAA [SameState-I] | 0.0111 |
| AGCUAACAUGAGGAUCACCCAUGUCCGCUAAACCAAGGAUAUGGGACGAAUAAAAUCGGACCAGAAGGUGGCCGAC [Qureaed] | 0.222 |
| GAAAAACAUGAGGAUCACCCAUGUGAAAAUAUGGGAGGAUAUACGAAGUCGAAAGUCAGAGUAGAAGGCCUAAAAG [Garnet 33] | 0.0733 |
| GAAAAACAUGAGGAUCACCCAUGUGAAAAUAUGGGAGGAUAUACUAAGACGAAAGUCGAGGUAGAAGGCCUAAAAG [Same State 1.4h (Mat - Mod of Eli - )] | 0.131 |
| AAAUAAAUAAGAGAGGAUAUGUCAGAGAAAACAUGAGGAUCACCCAUGUGAUAAUAAAAAGGGUGACAGAAGGCUCAAAACAAAC [Topaz 52] | 0.0593 |
| AAAGACAUGGUGCAGGAUAUAUUAAUAGUCACAUGAGGAUCACCCAUGUUCAUUUAUAUGAACGAGUAGAAGGGCGAUGAAAAAA [SameState2 Malc#7] | 0.0388 |
| AAUAUAUUAAGUGAGGAUAUCGAAGAAAAAACAUGAGGAUCACCCAUGUGGGAAACCUGGUCGGGUGAGAAGGCACUUAAUAUAU [Samwise Clockwise 27 - Jieux - Same State 2] | 0.0854 |
| AAAAAACAUGAGGAUCACCCAUGUGAAAAUAUGGAAGGAUAUACCGAAAAAAAAAAAAAGGUAGAAGGUCUAAAAA [SS! 1 MT 4] | 0.0323 |
| AUAAAACAUGAGGAUCACCCAUGUAGAAAUAUGGGAGGAUAUACAAAGACGAAAGUCAAGGUAGAAGGCCUAAAAG [Mat - Same State 1 - Meechl mod - D118] | 0.0474 |

| Sequence | apparent KD of MS2 coat protein [µM] |
| --- | --- |
| AAUCCAACUAGUCAGGAUAUCAGGCGUAAGACAUGAGGAUCACCCAUGUCCUAAGAACAAGUAACUGAGAAGGGACAGGGCGACC [JR_SS002_Sub411] | 0.062 |
| AAAAAAAAUGUGUAGGAUAUCAGUAAAAAUACAUGAGGAUCACCCAUGUUCAAAAAAAAAAAAACUGAGAAGGACGUGGAUGGUCC [Design 3] | 0.0111 |
| AGGAAACAUGAGGAUCACCCAUGUAAAGAAGGGUGAGGAUAUACAAAGAAAAGAAAGAAAGUAGAAGGCACAAAAG [Mongoose] | 0.113 |
| AUUAAACAUGAGGAUCACCCAUGUGGCAAAAGCACAGGAUAUAGGAGUCCGAGCAGACAACUAGAAGGGUGGAAAA [Rixelexe] | 0.0537 |
| AUAUGAGCUAUGGAGGAUAUCCAUAAUAAAACAUGAGGAUCACCCAUGUAAGAAAGAAAAGAAUGGGAGAAGGCCAUAGCUCAAU [SS 2 M44] | 0.0131 |
| GAAAAACAUGAGGAUCACCCAUGUAGAAAUAUGGGAGGAUAUACGAACUCGAAAGUCAAAGUAGAAGGCCUAAAAG [Garnet 30] | 0.13 |
| AAUAUACAUGAGGAUCACCCAUGUUUUAAUAACUGAGGAUAUACGGGUGAAAACAGCAUAGUAGAAGGCAGAAAAA [SameState1 Malc#5] | 0.0891 |
| AAUAAACAUGAGGAUCACCCAUGUACCGACCACUAAGGAUAUGGGCGAAUAACAGCUCGGCCAGAAGGUAGAGGUG [Gebimarabi] | 0.0625 |
| AACAAUCUAUCUGAGGAUAUGUGUCAAAAGACAUGAGGAUCACCCAUGUAAAAACAUGGGAAAACACAGAAGGCAGAUAGAUUGA [SS2: 1151] | 0.184 |
| AAGAAACAUGAGGAUCACCCAUGUAAGAAUAUGGGAGGAUAUACAAGGACAAGAGUCAAGGUAGAAGGCCUAAGAA [Mat - Same State 1 - Meechl mod - D143] | 0.118 |
| AACAAUCUAUCUGAGGAUAUCAUGACAAAGACAUGAGGAUCACCCAUGUGCAGGAAAACUGCUUAUGAGAAGGCAGAUAGAUUGA [SS2: 1113] | 0.0146 |
| AACAAUCUAUCUGAGGAUAUGAUGUCAAAGACAUGAGGAUCACCCAUGUGCAGGAAAACUGCAUAUCAGAAGGCAGAUAGAUUGA [SS2: 1103] | 0.0184 |
| GGGAGGAAGAGAGAGGAUAUCCAAAGGAAAACAUGAGGAUCACCCAUGUAAAAGGUAGGAAAUUGGGAGAAGGCUCAAAAGAGGG [salish99-ss2-038] | 0.0406 |
| AAAACACAUGAGGAUCACCCAUGUGCCUAAUUCGCAGGAUAUUUCUCGAUUAAAUGAUAGGAAGAAGGGUGAUAAA [Nob's Hobby 36 - Jieux - Same State 1] | 0.0409 |
| AAAAAACAUGAGGAUCACCCAUGUCAAAAGACAUGAGGAUAUGUACAGACUUCGGUCUGUACAGAAGGCAUGUAAA [SS1 - 1015] | 0.273 |
| AAAGAAGAAAGCGAGGAUAUGGAUGGGUAAACAUGAGGAUCACCCAUGUAUAAGAAAGAAAGAAACCAGAAGGCGCAAAAGAAAA [Khenemmaatre Hakor] | 0.0937 |
| GUAGACAUAGUUCAGGAUAUAUGAAUAGUCACAUGAGGAUCACCCAUGUGCAUUUAUAUGCGCACAUAGAAGGGAGGUAGUUAAC [Mat - Same state - Malcolm Mod - D122] | 0.0207 |
| AAAAAACAUGAGGAUCACCCAUGUAAAAAAAACACAGGAUAUCCCUUUUUUAAAUGGGAGGGAGAAGGGUGAAAAA [Nob's Hobby 12 - Jieux - Same State 1] | 0.0293 |
| AAAAAACAUGAGGAUCACCCAUGUCCUCGGACAUGAGGAUAUGUACAGACUUCGGUCUGUACAGAAGGCAUGAAAA [SS1 - 1014] | 0.756 |
| AAAUAACAUGAGGAUCACCCAUGUUACAACAAUACAGGAUAUGUGGGUGAAAAUAGCAUGACAGAAGGGUACUGUA [SameState1 Malc#33] | 0.124 |
| AAAAAACAUGAGGAUCACCCAUGUAAAAAAAACACAGGAUAUCCCUUUUUUAAAUAAAAAGGAGAAGGGUGAAAAA [Nob's Hobby 8 - Jieux - Same State 1] | 0.0309 |
